This note sets out measurements from publication PMC12650144 (2025).

B1: α1s II–III loop C region peptide (residues 720–765) [not stated] / DHPR β1a subunit, full length [mouse] (parent complex)
chain 1: LKVDEFESNVNEVKDPYPSADFPGDDEEDEPEIPVSPRPRPLAELQ
chain 2: not shown

Variants of B1 are the subject of the test. Nature of the test: intrinsic fluorescence binding (fluorescence quenching at 340 nm); read at the last titration point, 9 µM peptide; parent: 0.66; read off a plot.
On to chain 1 P16A, chain 1 P18A, chain 1 P23A, chain 1 P31A, chain 1 P34A, chain 1 P37A, chain 1 P39A, chain 1 P41A, for which the response is roughly 0.93.
